Assay [1] concerns the target T1, Z Alpha-1 Antitrypsin (Z-AAT) (human, UniProt P01009 25-418).
T1 construct: In the assays the protein was Z-AAT purified from plasma of Pi*ZZ patients, or Z-AAT in Z/Z plasma; also called Z-variant of alpha-1 antitrypsin; Z-AAT protein variant
The assay can be described thus: BLI (Octet): antibody from hybridoma supernatant loaded on the biosensor at 15ug/mL, ZAAT 500nM in HEPES buffer, association 300.81 s, dissociation 800.02 s, one concentration; column head kdis(1/s); Full R^2 0.7794. (In general: Biolayer interferometry detects binding as a change in optical thickness at a sensor tip.)

Assay [2] concerns the target T1, Z Alpha-1 Antitrypsin (Z-AAT). Put plainly: BLI (Octet): antibody from hybridoma supernatant loaded on the biosensor at 15ug/mL, ZAAT 500nM in HEPES buffer, association 300.81 s, dissociation 800.02 s, one concentration; Full R^2 0.7794.

T1 sequence (P01009 25-418 E366K limits assumed): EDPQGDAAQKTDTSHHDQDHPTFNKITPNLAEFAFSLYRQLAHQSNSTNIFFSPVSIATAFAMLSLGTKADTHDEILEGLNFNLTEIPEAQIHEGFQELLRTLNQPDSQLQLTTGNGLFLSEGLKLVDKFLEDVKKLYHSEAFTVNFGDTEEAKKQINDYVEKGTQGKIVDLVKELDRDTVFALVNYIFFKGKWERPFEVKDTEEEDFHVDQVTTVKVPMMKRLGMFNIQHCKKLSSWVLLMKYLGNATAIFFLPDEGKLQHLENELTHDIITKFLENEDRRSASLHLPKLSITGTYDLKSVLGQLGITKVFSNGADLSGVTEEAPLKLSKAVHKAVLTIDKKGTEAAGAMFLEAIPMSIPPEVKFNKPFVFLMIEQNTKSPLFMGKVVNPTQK

B1: HL2440 (antibody, V domains shown)
VH: QVQLQQPGAELVKPGASVKMSCKASGYTFTSYWITWVKQRPGQGLEWIGDIYPGSGSTNYNEKFKNKATLTVDTSSSTAYMQLSSLTSEDSAVYYCAAAVKGFAYWGQGTLVTVSA
VL: DIVMTQSHKFMSTSVGDRVSITCKASQDVGTAVAWYQQKPGQSPKLLIYWASTRHTGVPDRFTGSGSGTDFTLTISNVQSEDLADYFCQQYSTYPLTFGSGTKLEIK
notes: Mouse monoclonal from a hybridoma, used as supernatant or purified; also called Z-specific antibody HL2440; ZAAT mAb
In general, koff refers to the rate constant with which the complex falls apart. By Kd is commonly meant the free concentration of one partner at which half of the binding sites on the other are occupied at equilibrium, for simple one-to-one binding. As a reminder, the kon is the second-order rate constant of association. Low readings indicate slow association, high ones fast association. In turn, B1 displayed a koff in assay [1] of 0.00125 s⁻¹. In assay [2], this molecule came in with a Kd of 37.6 nM and an association rate constant (kon) of 33200 M⁻¹ s⁻¹.
